Source: a protein production outcome set (Wang et al. 2014)

Experiment: label from the status in PepcDB records
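Note: failed if final PepcDB status was selected cloned or expressed and not failed if soluble or beyond.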

Sequence: MENEVTLLDLLWALRRAFLRLLLLALGVGLGVYALSLLLPKRYESAALLWLDLRPFPSQEALRPFPSQEALRPFPSQEALSPDQPLTSPPLASLVQALDLSLPTLRLSPAGEPASRFAQVEWDAKAQVLSLRAFGATPEEAQRRATKLLEEARSFLQARVREAYGGLAAAELARAEKALGLLEKALQEEVPQVSSRGSADLAPFLEAQGTPPPVARAQDPAATYLALKRAELLAEASRLQAQVAWLRDLLAQDGTWDRFLAESVLLSPTLPERPLAPRPLAYGVLAALGALLLGVLWVFLATVLRPGGAGVPQSDA
- protein production: failed

Sequence: MEQNITLKDRSKLVISGVEHIYSFNDKRVELKTSVGEMVIEGENLDMSKLSIDENIISIDGTINSMVYAKPKKPQESFLKKVFR
- protein production: failed

Sequence: YRALYPFEARNHDEMSFNSGDIIQVDEKTVGEPGWLYGSFQGNFGWFPCNYVEKMPSSENEKAVSPKKALLPPTVSLSAT
- protein production: not failed

Sequence: MNSYDETVQDIITAVGGKDNIEEVFHCVARLRFYLKDSTQLNKTILQKNSNIYDFKFENNQLQILIGSDVNKYYKALMKCINEDKDFSKAKKGNIKMSKSSDKDKQLAEQIVKLVGGKENVNSLIHCVTRLRFKLKDESKADDEAIKNLHGVMGVAHAGGQYQVIIGNNVTDIYDQVMPLLGLSSEQEVTQDDEKEGNIFSRLVALISSLFMPLLGVMTGAGMLKGLLVLFGVLGWVKQGTGTYMILNAAADALFYFLPILLGFTAGKTFKINPFVGAVTGGALVYPSMVAAATAHKAITFLGIPVNLMNYSQTMLPIVIAIWGMSWLEKGTKKIIPSSVRNLFVPLLDLMIVVPLAYIIIGPIMQTLSQWLSEASLWIYGILPVAAGFIIGGIWQGAVILGLHWAFIPVLMNNLMTNHFDPINGIMYCTLFGQVGACFAMGLKAKDKNFKEIAIPAAISGLVGITEPIIYGVTLPHKKAFAFASVGSAFGGAIAAACHAGMYTMPGGGIFGIPAFINPKGINMQFYGFLISLLVAIVVSFVLTMIFGDTVVPSAPKAKVQVKKAEFKDQAIYSPLEGTVVELKDVKDPVFSAGTIGKGIAVKPTNNEVRAPFDGKVISVFPTKHAIGLKSENGVELLIHLGIDTVNLQGKYFDSMVKDGQEIKKGDLIEKFDVQAIQEAGYDTVVPIVVTNSNNFDDVISEKKNGDKVNFGDQLLMATVEQDVNVQDSSIAKA
- protein production: failed

Sequence: LTFETLAREWFAYNSPRWAESTTYKAKLYMENDLIPGIGARPVKALTRPDLVDLVRKVEARGTLNAAGKIRQWLHQIFRYGLAKGVVESNPATDLDVVAAP
- protein production: failed

Sequence: MPAKTALIYSNDFSRFSYGDDHPFKIQRIILARELMGMLGLTELPGACIHDCPRADEASLLTFHSPDYLQRLREFSDSDEPRADFRYGLGDLDNPVFKGFYDWAILGVGGTMEAARLVTEEGYDIAFTMAGGWHHAHRSKASGFSYLNDAVIAINTLVAKGLRVAYLDIDAHHGDGVQEAFYDTDQVLTVSIHESGIYFFPGTGFEDEIGRGQGRGYSVNVPLVAHTDDALFMKAFDEVAYPLIAAYNPDVLVTQLGVDTFRTDPLTRLEITTHSYTYILRKLKALKIPWVAVGGGGYNMINVARGWTLAWGIMNGVELPPKLPAQFVDMIAPMGHPNRMLLDAMHWAEEDDRNRALDAVERSIAAIRETVFPVIIGNYAAAAGE
- protein production: failed

Sequence: MFVHTKTKKKRKWQRKVFLLLLLFLLPIVSVLAFIVLFIGGGTAESHDVEATTGGVKLSAKQFADKTKLGISEEEAKNALAFADRLMSRHHFTAQATAGVLAVGFRESGFDVKAVNNSGGVAGFFQWSGWGSSVNGDRWKVASKRELTLEVEVDLMSTELDGRYADVVKKVGSATDEKQAAKDWSQYYEGVAVSDGQTKADKIESWATTICEALKSGGTNYAKVNNTGTSSTAIPQGWENISAFDGHAYEGSENYPQGQCTWYVYNRAKQLGVSFSPYMGNGGQWYQVQGYHSSHTPKAHTALSFVNGQAGSDPTYGHVAFVEAVKDDGSILISEMNVYGQPAMTVAYRTFDAETAKQFWYVEGK
- protein production: failed

Sequence: MAELEAVADDLDALIDDLDYLPGHFHLEMQLNFEPRSPAPQRARDLKLQREGLRQELQLAAAPQRPAVRHLLGAFAFYLEELDEARECFLEVAHEHPGNLNAWANLAHVYGRLGQEEEEEACAARLADLMGLAEEPEAAGDPQLRAARCLAEQGYAHGFDVGCASPEERARGLAAGIALYDKALGYGQQIPMEEKRGWYFTMATLYIRLDGIFLELGSEEQKRLPAFNRTLALLRQVLKSEDPRHRALAWCYLGMLLERKDTFSTTPMGVHDCGYSGTDPLDCFGKAIEIAKNQPPILNRLAKIFYFLGKQDMAIGTCNMALDVLRDPELNWQAYCTRAKIHIRAYLHDLKRAKMGLGGMPDRNHLACAKADLEEVVRVCPGFKAYLDIGQVYYYMGVDAVQELLAVDEAALNQALVFLAKAGESELGATLPELQLLRGKCLRIKGEDANAAACFKRAVELDDAGSSHTDGFGCLLEALLAQWSQAQLSDGELGREVDAWLRRAQDKYPAARLRQELQRVWRGHTDEVLGLARALVAQGRPALVRLLFETMEREGEGASAPRDRRAVSF
- protein production: failed

Sequence: MEKHSHEHHHHHDISSISKNKLFFVIIFNFIIALAEVIGGSISGSLSLISDALHNLSDTASLILSYVSIKISEKPKNKAKTYGYKRANILAAFINSAALIGISIFLGVQALEKLTSLKKINANIVIVVALIGLLGNFLSVIILKKGAEKSLNVRSSYLHMLSDAMASLAVIISGVFIKYFAIYWIDSVLTIFINMLILKSSYNILKESINILMQTTPVNLDMDDVKEQLLKIKEIKGVHHFHIWTLDENNIVLEGHIEIDDILVSETRAISDKIEHILNEDFHITHVVIQFESTSCEDNICKI
- protein production: failed

Sequence: MEQRIWDLFGISADGNISRGNSGCVHTRNNKKEGDVLKVLTYVMLASVILFTTTYLILYLTYAKPVEIDVPFYGAPRGYTTITYEEVILPLTGKYKIENCYVQDSRSIYSNEGYLSERGVRIIVGNYTEDVYVRLIPQKMIPSEIIFLLMVGGVLGYVGDRMFKFK
- protein production: failed

Sequence: VGKEKAEVELLQVDVDLQADIVAKYNAQLQKAVQVEEKKAREAATEAVKEMVKAEYEERYAEDENLATIMRDVAEILEQMEHAEVRRLITEDKIRPDGRKIDEIRP
- protein production: failed

Sequence: QDHYKVLGLSKLRWQATSDEIRFCYRQKVLKHHPDKKKHRGIVMEKEEYFTCITKAYEQVGMSDVK
- protein production: failed

Sequence: MFGLEAIDLARIQFAFTVSFHIIFPAITIGLASYLAVLEGLWLKTNEEVYRDLYHFWSKIFAVNFGMGVVSGLVMAYQFGTNWSHFSDFAGSITGPLLTYEVLTAFFLEAGFLGVMLFGWNRVGPGLHFFATVMVAIGTLISTFWILASNSWMQTPQGFEIVDGRVIPVDWLAVIFNPSFPYRLLHMSVAAFLATAFFVGASAAWHLLRGRDNPAIRKMLSMAMWMALIVAPVQALIGDAHGLNTLEHQPAKIAAMEGHWDNSSGEPTPLILFGWPDMQREETRFKVEIPVLGSLILKHSLTEPIPALKDFPPEDRPNSTVVFWSFRIMAGLGMLMILVGVWSLWLRWRGQDKLFNSKAFLRLTLLMGPSGLIAILAGWFTTEMGRQPWVVYGLMRTADASSAQSVTQMSLTLLTFVVVYFSLFGVGIGYMMRLVRKGPVTHEGRETNPGGAGQKRTPARPLSAAGEGFDEEHDGHAQAADRDQDKRN
- protein production: failed

Sequence: MGTVMDVLKGDNRFSMLVAAIQSAGLTETLNREGVYTVFAPTNEAFRALPPRERSRLLGDAKELANILKYHIGDEILVSGGIGALVRLKSLQGDKLEVSLKNNVVSVNKEPVAEPDIMATNGVVHVITNVLQP
- protein production: not failed

Sequence: MAKKVAVLAVNPVNGCGLFQYLEAFFENGISYKVFAVSDTKEIKTNSGMVLIVDDVIANLKGHEDEFDALVFSCGDAVPVFQQYANQPYNVDLMEVIKTFGEKGKMMIGHCAGAMMFDFTGITKGKKVAVHPLAKPAIQNGIATDEKSEIDGNFFTAQDENTIWTMLPKVIEALKLEHHHHHH
- protein production: not failed

Sequence: MVQELLKQLQNGEAKFADVLAYIESRFEHQPTAFKNGQQQNAATENQGSAKVFSLAQIEGLNQTETLSLFAEHYAAVLNTPEGTDHQNIRQFMQHGWDGVTFEGEALQAK
- protein production: failed

Sequence: MTDDKKIRAAIVGYGNIGRYALQALREAPDFEIAGIVRRNPAEVPFELQPFRVVSDIEQLESVDVALVCSPSREVERTALEILKKGICTADSFDIHDGILALRRSLGDAAGKSGAAAVIASGWDPGSDSVVRTLMQAIVPKGITYTNFGPGMSMGHTVAVKAIDGVKAALSMTIPLGTGVHRRMVYVELLPGHNLEEVSAAIKADEYFVHDETHVIQVDEVDALIDMGHGVRMVRKGVSGSTQNQRMSFDMEINNPALTGQVLVCAARAAMRQQPGAYTLQEIPVIDLLPGDREQWIGKLC
- protein production: not failed
